In US20150064134A1:

Experiments:
Assay in all cases: cell-based or functional assay
JNK1α1(h) (human) = JNK1α1(h) (human) (UniProt P45983)
Abl(M351T)(h) (human) = Abl(M351T)(h) (human) (UniProt P00519)
Abl(H396P)(h) (human) = Abl(H396P)(h) (human) (UniProt P00519)
PAK3(h) (human) = PAK3(h) (human) (UniProt O75914)
Lck(h) (human) = Lck(h) (human) (UniProt P06239)
JAK2(h) (human) = JAK2(h) (human) (UniProt O60674)
CK1γ2(h) (human) = CK1γ2(h) (human) (UniProt P78368)
PAK5(h) (human) = PAK5(h) (human) (UniProt Q9P286)
EphA2(h) (human) = EphA2(h) (human) (UniProt P29317)
Chain of EphA2(h) (human) (P29317 559-976 limits assumed): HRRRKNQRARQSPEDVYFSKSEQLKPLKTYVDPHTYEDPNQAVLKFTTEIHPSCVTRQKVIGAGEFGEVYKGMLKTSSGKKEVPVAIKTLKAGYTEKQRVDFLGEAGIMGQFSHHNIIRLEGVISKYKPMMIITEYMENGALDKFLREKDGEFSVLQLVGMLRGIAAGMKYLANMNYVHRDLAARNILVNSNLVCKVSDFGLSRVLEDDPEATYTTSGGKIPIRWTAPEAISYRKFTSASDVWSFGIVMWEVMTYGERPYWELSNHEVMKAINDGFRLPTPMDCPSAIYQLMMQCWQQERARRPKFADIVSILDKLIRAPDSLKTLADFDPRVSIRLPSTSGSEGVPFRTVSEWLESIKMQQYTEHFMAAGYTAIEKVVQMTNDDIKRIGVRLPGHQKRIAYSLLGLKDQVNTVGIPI

Fms(Y969C)(h) (human) = target: T1, Fms(Y969C)(h) (human) (UniProt P07333)
T1 sequence (looked up): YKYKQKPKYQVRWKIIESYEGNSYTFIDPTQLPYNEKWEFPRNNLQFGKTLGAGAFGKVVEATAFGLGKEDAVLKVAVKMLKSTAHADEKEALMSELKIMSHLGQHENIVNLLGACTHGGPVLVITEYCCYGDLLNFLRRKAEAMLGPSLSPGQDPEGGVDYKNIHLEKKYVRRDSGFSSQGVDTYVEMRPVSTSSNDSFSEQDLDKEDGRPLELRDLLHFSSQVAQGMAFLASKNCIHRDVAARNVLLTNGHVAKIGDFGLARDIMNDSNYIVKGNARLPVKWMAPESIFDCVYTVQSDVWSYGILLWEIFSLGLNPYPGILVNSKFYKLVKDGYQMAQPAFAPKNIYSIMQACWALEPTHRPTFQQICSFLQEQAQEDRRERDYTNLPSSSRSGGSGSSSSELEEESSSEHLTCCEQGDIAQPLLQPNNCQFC

EGFR(T790M)(h) (human) = EGFR(T790M)(h) (human) (UniProt P00533)
CK1γ3(h) (human) = CK1γ3(h) (human) (UniProt Q9Y6M4)
HIPK3(h) (human) = HIPK3(h) (human) (UniProt Q9H422)
Fgr(h) (human) = Fgr(h) (human) (UniProt P09769)
Yes(h) (human) = Yes(h) (human) (UniProt P07947)
Bmx(h) (human) = target: T2, Bmx(h) (human) (UniProt P51813)
T2 sequence (looked up): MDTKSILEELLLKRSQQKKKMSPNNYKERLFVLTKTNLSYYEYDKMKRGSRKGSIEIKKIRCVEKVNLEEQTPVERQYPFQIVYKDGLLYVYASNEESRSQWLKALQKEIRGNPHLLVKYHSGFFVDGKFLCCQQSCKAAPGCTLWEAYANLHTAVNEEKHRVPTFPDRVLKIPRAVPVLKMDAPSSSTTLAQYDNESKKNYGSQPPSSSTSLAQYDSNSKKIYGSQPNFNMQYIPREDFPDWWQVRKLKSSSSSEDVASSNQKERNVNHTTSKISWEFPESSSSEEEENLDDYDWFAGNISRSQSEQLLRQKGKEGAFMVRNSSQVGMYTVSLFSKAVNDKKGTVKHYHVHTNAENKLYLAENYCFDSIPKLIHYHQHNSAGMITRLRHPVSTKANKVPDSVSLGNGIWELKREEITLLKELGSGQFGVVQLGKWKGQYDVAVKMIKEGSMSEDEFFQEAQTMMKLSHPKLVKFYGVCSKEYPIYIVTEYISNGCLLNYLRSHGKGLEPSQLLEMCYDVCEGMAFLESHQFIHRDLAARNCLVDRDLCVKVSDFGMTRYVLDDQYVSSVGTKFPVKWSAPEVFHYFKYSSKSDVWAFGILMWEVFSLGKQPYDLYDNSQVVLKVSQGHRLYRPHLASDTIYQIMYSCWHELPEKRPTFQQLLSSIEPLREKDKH

PAK6(h) (human) = PAK6(h) (human) (UniProt Q9NQU5)
MAPK1(h) (human) = MAPK1(h) (human) (UniProt P28482)
Chain of MAPK1(h) (human) (P28482 whole entry): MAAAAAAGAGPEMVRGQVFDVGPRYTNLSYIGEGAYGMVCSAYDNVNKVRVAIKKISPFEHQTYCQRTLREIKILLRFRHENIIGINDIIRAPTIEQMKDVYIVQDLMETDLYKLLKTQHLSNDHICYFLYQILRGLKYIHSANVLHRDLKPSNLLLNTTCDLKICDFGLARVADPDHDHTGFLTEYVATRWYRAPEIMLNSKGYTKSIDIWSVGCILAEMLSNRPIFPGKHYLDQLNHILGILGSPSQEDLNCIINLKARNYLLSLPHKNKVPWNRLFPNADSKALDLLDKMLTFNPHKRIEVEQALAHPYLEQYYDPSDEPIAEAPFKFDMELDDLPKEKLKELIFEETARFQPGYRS

Met(Y1248D)(h) (human) = Met(Y1248D)(h) (human) (UniProt P08581)
TLK2(h) (human) = TLK2(h) (human) (UniProt Q86UE8)
PDGFRα(D842V)(h) (human) = PDGFRα(D842V)(h) (human) (UniProt P16234)
Chain of PDGFRα(D842V)(h) (human) (P16234 550-1089 D842V limits assumed): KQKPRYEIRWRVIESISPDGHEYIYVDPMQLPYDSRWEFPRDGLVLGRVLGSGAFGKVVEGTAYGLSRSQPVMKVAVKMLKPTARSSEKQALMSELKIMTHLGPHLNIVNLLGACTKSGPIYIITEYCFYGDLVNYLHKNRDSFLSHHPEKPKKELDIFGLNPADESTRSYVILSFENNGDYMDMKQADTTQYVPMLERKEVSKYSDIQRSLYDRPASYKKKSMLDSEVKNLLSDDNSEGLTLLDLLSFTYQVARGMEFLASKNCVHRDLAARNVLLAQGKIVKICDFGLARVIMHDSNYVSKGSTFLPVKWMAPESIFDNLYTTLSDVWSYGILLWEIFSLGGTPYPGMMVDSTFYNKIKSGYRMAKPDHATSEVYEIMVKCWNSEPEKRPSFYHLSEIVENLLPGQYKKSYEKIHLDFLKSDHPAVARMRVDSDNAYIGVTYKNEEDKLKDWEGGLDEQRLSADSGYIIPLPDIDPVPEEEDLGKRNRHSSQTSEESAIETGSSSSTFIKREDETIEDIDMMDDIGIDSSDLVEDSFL

Met(Y1248H)(h) (human) = Met(Y1248H)(h) (human) (UniProt P08581)
JAK3(h) (human) = JAK3(h) (human) (UniProt P52333)
GRK5(h) (human) = GRK5(h) (human) (UniProt P34947)
EGFR(L858R)(h) (human) = EGFR(L858R)(h) (human) (UniProt P00533)
BTK(h) (human) = BTK(h) (human) (UniProt Q06187)
Snk(h) (human) = Snk(h) (human) (UniProt Q9NYY3)
IGF-1R(h) (human) = IGF-1R(h) (human) (UniProt P08069)
Chain of IGF-1R(h) (human) (P08069 959-1367 limits assumed): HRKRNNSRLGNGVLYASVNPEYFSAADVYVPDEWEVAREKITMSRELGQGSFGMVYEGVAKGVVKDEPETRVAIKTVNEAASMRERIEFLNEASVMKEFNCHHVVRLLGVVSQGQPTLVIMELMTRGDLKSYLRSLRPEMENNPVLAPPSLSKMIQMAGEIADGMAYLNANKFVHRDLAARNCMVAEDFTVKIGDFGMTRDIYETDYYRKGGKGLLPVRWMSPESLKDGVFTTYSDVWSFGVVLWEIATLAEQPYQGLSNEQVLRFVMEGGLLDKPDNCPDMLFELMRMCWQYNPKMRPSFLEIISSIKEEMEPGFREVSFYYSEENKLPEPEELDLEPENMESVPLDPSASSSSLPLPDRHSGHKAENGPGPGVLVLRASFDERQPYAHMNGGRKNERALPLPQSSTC

FAK(h) (human) = FAK(h) (human) (UniProt Q05397)
PKCη(h) (human) = PKCη(h) (human) (UniProt P24723)
CK2α2(h) (human) = CK2α2(h) (human) (UniProt P19784)
cKit(V560G)(h) (human) = cKit(V560G)(h) (human) (UniProt P10721)
Chain of cKit(V560G)(h) (human) (P10721 544-976 V560G): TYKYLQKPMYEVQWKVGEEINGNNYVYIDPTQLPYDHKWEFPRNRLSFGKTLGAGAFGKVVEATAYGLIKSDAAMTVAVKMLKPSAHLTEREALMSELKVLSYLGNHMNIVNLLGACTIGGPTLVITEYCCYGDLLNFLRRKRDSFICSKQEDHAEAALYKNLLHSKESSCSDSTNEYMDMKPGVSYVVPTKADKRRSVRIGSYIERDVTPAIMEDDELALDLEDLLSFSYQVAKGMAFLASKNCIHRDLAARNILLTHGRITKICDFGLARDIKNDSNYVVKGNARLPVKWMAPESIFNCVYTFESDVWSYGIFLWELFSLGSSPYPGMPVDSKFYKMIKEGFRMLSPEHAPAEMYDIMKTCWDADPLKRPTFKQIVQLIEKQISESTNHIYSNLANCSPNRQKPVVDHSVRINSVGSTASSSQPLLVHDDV

SRPK2(h) (human) = SRPK2(h) (human) (UniProt P78362)
MRCKα(h) (human) = MRCKα(h) (human) (UniProt Q5VT25)
ACK1(h) (human) = ACK1(h) (human) (UniProt Q07912)
c-RAF(h) (human) = c-RAF(h) (human) (UniProt P04049)
PAR-1Bα(h) (human) = PAR-1Bα(h) (human) (UniProt Q7KZI7)

Chain of Abl(M351T)(h) (human) (P00519 27-1130 M351T limits assumed): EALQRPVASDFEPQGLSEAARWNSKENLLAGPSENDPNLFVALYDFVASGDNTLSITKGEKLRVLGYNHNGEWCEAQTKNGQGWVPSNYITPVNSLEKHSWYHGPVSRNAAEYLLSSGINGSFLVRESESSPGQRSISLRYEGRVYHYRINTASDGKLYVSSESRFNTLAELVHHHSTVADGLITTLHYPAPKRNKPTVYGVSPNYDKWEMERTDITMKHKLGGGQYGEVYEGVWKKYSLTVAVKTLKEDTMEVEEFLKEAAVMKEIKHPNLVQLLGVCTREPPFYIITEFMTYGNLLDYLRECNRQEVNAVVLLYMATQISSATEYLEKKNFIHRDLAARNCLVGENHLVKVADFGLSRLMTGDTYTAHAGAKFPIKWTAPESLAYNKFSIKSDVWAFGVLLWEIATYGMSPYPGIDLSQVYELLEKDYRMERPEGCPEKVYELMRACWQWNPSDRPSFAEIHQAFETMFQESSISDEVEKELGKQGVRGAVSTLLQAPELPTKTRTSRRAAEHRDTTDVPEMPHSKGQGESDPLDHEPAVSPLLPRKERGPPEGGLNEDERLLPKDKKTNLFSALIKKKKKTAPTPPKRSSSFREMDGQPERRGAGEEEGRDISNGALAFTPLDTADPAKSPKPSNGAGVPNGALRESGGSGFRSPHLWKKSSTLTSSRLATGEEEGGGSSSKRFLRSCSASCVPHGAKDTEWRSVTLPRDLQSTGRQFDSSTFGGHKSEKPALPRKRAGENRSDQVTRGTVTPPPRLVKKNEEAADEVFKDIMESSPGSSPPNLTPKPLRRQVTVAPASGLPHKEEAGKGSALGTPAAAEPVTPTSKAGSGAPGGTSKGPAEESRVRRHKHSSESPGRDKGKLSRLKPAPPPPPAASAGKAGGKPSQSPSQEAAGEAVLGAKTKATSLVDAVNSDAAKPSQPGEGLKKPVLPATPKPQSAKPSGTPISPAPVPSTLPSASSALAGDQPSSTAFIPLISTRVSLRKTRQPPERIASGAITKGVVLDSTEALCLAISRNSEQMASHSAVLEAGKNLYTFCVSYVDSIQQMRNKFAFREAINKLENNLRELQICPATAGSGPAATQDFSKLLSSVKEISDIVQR
Chain of Abl(H396P)(h) (human) (P00519 27-1130 H396P limits assumed): as the sequence (P00519 27-1130 M351T limits assumed) above, with T325M, H370P counted along it
Chain of PAK3(h) (human) (O75914 other isoform, or with tags, fused parts or gaps limits assumed): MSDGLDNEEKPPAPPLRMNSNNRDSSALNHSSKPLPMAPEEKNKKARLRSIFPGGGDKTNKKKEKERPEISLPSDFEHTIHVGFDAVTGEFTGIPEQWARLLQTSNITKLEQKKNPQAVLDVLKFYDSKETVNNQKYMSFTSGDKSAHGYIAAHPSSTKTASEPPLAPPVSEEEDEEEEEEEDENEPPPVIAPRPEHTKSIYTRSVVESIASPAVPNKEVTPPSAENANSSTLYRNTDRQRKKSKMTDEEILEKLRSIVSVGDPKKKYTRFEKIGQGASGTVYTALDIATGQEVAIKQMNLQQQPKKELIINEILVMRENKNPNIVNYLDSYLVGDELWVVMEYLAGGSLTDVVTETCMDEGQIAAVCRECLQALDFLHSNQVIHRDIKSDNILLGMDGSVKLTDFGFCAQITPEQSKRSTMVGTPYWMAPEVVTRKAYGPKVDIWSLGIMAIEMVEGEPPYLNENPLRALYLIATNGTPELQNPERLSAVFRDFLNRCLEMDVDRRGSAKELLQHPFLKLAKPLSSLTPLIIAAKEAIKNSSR

| Substance | % activity at 100 µM (JNK1α1(h) (human)) | % activity at 100 µM (Abl(M351T)(h) (human)) | % activity at 100 µM (Abl(H396P)(h) (human)) | % activity at 100 µM (Lck(h) (human)) | % activity at 100 µM (JAK2(h) (human)) | % activity at 100 µM (PAK5(h) (human)) | % activity at 100 µM (EphA2(h) (human)) | % activity at 100 µM (Fms(Y969C)(h) (human)) | % activity at 100 µM (EGFR(T790M)(h) (human)) | % activity at 100 µM (HIPK3(h) (human)) | % activity at 100 µM (Fgr(h) (human)) | % activity at 100 µM (Yes(h) (human)) | % activity at 100 µM (Bmx(h) (human)) | % activity at 100 µM (Met(Y1248D)(h) (human)) | % activity at 100 µM (TLK2(h) (human)) | % activity at 100 µM (PDGFRα(D842V)(h) (human)) | % activity at 100 µM (Met(Y1248H)(h) (human)) | % activity at 100 µM (JAK3(h) (human)) | % activity at 100 µM (EGFR(L858R)(h) (human)) | % activity at 100 µM (BTK(h) (human)) | further results |
| --- | --- | --- | --- | --- | --- | --- | --- | --- | --- | --- | --- | --- | --- | --- | --- | --- | --- | --- | --- | --- | --- |
| MMI-0300 (peptide) | 97% | 90% | 101% | -2% | 133% | 110% | 31% | 72% | 100% | 93% | 60% | 67% |  |  |  |  |  |  |  |  | % activity at 100 µM (PAK3(h) (human)): 140%; % activity at 100 µM (CK1γ2(h) (human)): 123%; % activity at 100 µM (CK1γ3(h) (human)): 125% |
| MMI-0400 (peptide) | 98% |  |  |  |  |  | 17% | 91% |  |  | 47% | 14% | 26% | 31% | 151% | 118% | 63% | 122% | 52% | 94% | % activity at 100 µM (PAK6(h) (human)): 100%; % activity at 100 µM (MAPK1(h) (human)): 100%; % activity at 100 µM (GRK5(h) (human)): 131%; % activity at 100 µM (Snk(h) (human)): 131%; % activity at 100 µM (IGF-1R(h) (human)): 90%; % activity at 100 µM (FAK(h) (human)): 96%; % activity at 100 µM (PKCη(h) (human)): 98%; % activity at 100 µM (CK2α2(h) (human)): 96%; % activity at 100 µM (cKit(V560G)(h) (human)): 124%; % activity at 100 µM (SRPK2(h) (human)): 97%; % activity at 100 µM (MRCKα(h) (human)): 97%; % activity at 100 µM (ACK1(h) (human)): 95% |
| MMI-0500 (peptide) |  | 61% | 51% | 359% | 49% | 125% |  |  | 70% | 85% |  |  | 45% | 218% | 133% | 170% | 126% | 95% | 26% | 18% | % activity at 100 µM (c-RAF(h) (human)): 19%; % activity at 100 µM (Snk(h) (human)): 122%; % activity at 100 µM (FAK(h) (human)): 94%; % activity at 100 µM (PKCη(h) (human)): 45%; % activity at 100 µM (PAR-1Bα(h) (human)): 97%; % activity at 100 µM (cKit(V560G)(h) (human)): 198%; % activity at 100 µM (SRPK2(h) (human)): 80%; % activity at 100 µM (MRCKα(h) (human)): 5%; % activity at 100 µM (ACK1(h) (human)): 64% |
